Data from US8529881B2, “Peptides for active anti-cytokine immunization” (Vaxconsulting, priority 2002, dated 2013).
Values joined by “and” are separate entries in the source; they are usually repeats but may differ in a detail not shown here. Equal values may be shown once. Positions of bridges follow the written chain, without caps; N, C: chain ends. No end group written: not given here.

Columns and labels:
[1] = biological target: human IL10 (native cytokine) (Homo sapiens, UniProt P22301); assay: ELISA of serum from immunized mice with native IL10; type: in vivo; conditions: serum day 60
[2] = biological target: T1, human TGFβ2 (native cytokine) (Homo sapiens, UniProt P61812); assay: ELISA of serum from immunized mice with native TGFβ2; type: in vivo; conditions: serum day 60
T1 sequence (P61812 303-414 limits assumed): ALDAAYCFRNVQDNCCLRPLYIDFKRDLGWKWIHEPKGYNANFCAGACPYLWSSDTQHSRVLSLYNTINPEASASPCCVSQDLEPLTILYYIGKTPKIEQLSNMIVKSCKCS

[3] = biological target: human IL12p40 (native cytokine) (Homo sapiens, UniProt P29460); conditions: in vivo
[4] = biological target: T2, human IP10 (native cytokine) (Homo sapiens, UniProt P02778); assay: ELISA of serum from immunized mice with native IP10; type: in vivo; conditions: serum day 60
T2 sequence (P02778 22-98): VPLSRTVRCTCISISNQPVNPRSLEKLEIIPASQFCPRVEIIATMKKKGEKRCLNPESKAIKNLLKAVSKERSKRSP

[5] = biological target: human IFNγ (native cytokine) (Homo sapiens, UniProt P01579); conditions: in vivo
[6] = tested on: IFNγ (native cytokine); type: cell-based, human
[7] = biological target: T3, human IL5 (native cytokine) (Homo sapiens, UniProt P05113); assay: ELISA of serum from immunized mice with native IL5; type: in vivo; conditions: serum day 60
T3 sequence (P05113 20-134): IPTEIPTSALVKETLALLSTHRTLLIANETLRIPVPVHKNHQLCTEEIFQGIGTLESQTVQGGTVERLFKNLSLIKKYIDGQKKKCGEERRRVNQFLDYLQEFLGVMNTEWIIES

[8] = tested on: human vEGF (native cytokine); assay: ELISA of serum from immunized mice with native vEGF; type: in vivo; conditions: serum day 60
[9] = biological target: T4, human IL4 (native cytokine) (Homo sapiens, UniProt P05112); assay: ELISA of serum from immunized mice with native IL4; type: in vivo; conditions: serum day 60
T4 sequence (P05112 25-153): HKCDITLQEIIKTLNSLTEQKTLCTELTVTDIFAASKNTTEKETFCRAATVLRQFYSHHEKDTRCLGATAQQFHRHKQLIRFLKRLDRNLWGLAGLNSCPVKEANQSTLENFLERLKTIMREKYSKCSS

[10] = biological target: T5, human IL18 (native cytokine) (Homo sapiens, UniProt Q14116); assay: ELISA of serum from immunized mice with native IL18; type: in vivo; conditions: serum day 60
T5 sequence (Q14116 37-193): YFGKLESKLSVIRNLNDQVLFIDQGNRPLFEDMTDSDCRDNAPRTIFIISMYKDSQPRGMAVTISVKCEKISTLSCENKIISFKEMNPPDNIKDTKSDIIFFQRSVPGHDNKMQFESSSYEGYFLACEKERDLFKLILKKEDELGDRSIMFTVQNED

[11] = biological target: human TNFα (native cytokine) (Homo sapiens, UniProt P01375); assay: ELISA of serum from immunized mice with native TNFα; type: in vivo; conditions: serum day 60
[12] = biological target: native TNFα cytokine (Homo sapiens, UniProt P01375); assay: Neutralization of native TNFα by mouse serum, lysis of L929 cells; type: cell-based; conditions: for percentage inhibition of the lysis (neutralization of the TNFα): 50 units TNFα, 24 hours
Description: The existence of antibodies neutralizing the native cytokine was evaluated as follows: 50 units of native TNFα cytokine are preincubated with serum from mice (immunized or control) diluted 1/200th over 2 hours at 37° C. The whole is then added to L929 cells, with 25,000 cells per microwell. The lysis of the cells is evaluated after 24 hours by staining with naphthol blue black (Sigma).

human IL10 (native cytokine), sequence (P22301 19-178): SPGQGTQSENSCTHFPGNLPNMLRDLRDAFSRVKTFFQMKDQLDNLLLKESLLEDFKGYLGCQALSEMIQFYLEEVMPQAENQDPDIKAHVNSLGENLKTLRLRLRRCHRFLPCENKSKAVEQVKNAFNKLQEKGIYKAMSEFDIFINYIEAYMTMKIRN
human IL12p40 (native cytokine), sequence (P29460 23-328): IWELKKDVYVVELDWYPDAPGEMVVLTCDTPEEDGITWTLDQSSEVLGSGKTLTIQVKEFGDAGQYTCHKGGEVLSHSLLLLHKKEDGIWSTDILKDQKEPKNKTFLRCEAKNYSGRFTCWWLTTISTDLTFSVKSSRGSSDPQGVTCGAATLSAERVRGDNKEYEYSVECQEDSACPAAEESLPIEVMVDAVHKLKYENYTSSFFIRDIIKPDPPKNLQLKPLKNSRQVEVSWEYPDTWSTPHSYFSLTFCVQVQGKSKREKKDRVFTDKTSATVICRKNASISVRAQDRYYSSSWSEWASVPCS
human IFNγ (native cytokine), sequence (P01579 24-161): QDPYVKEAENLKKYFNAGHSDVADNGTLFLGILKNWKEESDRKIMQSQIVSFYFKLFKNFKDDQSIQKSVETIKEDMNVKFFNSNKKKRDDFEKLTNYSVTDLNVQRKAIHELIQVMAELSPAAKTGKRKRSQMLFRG
human TNFα (native cytokine), sequence (P01375 77-233 limits assumed): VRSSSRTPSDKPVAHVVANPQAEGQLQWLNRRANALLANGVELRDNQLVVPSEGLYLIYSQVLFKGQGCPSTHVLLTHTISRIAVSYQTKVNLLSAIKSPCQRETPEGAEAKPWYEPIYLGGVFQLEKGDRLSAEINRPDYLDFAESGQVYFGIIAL
native TNFα cytokine, sequence (P01375 77-233 limits assumed): as above

## DECNMLRDLRDAFSRVKTFFQMKDQLDNC (disulfide 3-29 (inferred); also: KLH conjugate; listed as Homo sapiens) [Example 5, cyclic peptide originating from human IL10 coupled with KLH]
[1]; Average of 5 mice
  average absorbance, ELISA native IL10: 1.44
[1]; Mouse 1
  average absorbance, ELISA native IL10: 1.94
[1]; Mouse 2
  average absorbance, ELISA native IL10: 0.96
[1]; Mouse 3
  average absorbance, ELISA native IL10: 1.85
[1]; Mouse 4
  average absorbance, ELISA native IL10: 0.97
[1]; Mouse 5
  average absorbance, ELISA native IL10: 1.5

## DTILYYIGKTPKIE (also: KLH conjugate via carbodiimide; listed as Homo sapiens) [Example 11, peptide corresponding to human TGFβ2, D added, coupled with KLH]
[2]; Average of 5 mice
  average absorbance, ELISA native TGFβ2: 1.07
[2]; Mouse 1
  average absorbance, ELISA native TGFβ2: 0.95
[2]; Mouse 2
  average absorbance, ELISA native TGFβ2: 1.15
[2]; Mouse 3
  average absorbance, ELISA native TGFβ2: 0.99
[2]; Mouse 4
  average absorbance, ELISA native TGFβ2: 1.17
[2]; Mouse 5
  average absorbance, ELISA native TGFβ2: 1.08

## KKEDGIWSTDILKDQKEPKNKTFLRCE [Example 7]
[3]
  average absorbance, ELISA native IL12p40: 0.95 and 1.06 and 1.58 and 1.14 and 0.87 and 1.12

## KKKGEKRCLNPESKA [Example 9]
[4]; Average of 5 mice
  average absorbance, ELISA native IP10: 1.07
[4]; Mouse 1
  average absorbance, ELISA native IP10: 1.16
[4]; Mouse 2
  average absorbance, ELISA native IP10: 0.98
[4]; Mouse 3
  average absorbance, ELISA native IP10: 1.24
[4]; Mouse 4
  average absorbance, ELISA native IP10: 1.09
[4]; Mouse 5
  average absorbance, ELISA native IP10: 0.88

## KKYFNAGHSDVADNGTLFLGILKN [Example 4]
[5]
  average absorbance, ELISA native IFNγ: 1.56 and 1.05 and 0.98 and 1.80 and 1.64 and 1.41
[6]
  neutralization of the IFNγ, result in words: inhibitions are observed for the immunized mice

## KLQEFLGVMNTEWI (also: KLH conjugate via glutaraldehyde; listed as Homo sapiens) [Example 10, peptide corresponding to human IL5, K added, coupled with KLH]
[7]; Average of 5 mice
  average absorbance, ELISA native IL5: 1.26
[7]; Mouse 1
  average absorbance, ELISA native IL5: 1.25
[7]; Mouse 2
  average absorbance, ELISA native IL5: 1.21
[7]; Mouse 3
  average absorbance, ELISA native IL5: 1.87
[7]; Mouse 4
  average absorbance, ELISA native IL5: 1.10
[7]; Mouse 5
  average absorbance, ELISA native IL5: 0.88

## KPHQGQHIGEMS (also: KLH conjugate via glutaraldehyde; listed as Homo sapiens) [Example 2, synthetic peptide originating from human vEGF coupled to KLH]
[8]; Average of 5 mice
  average absorbance, ELISA native vEGF: 1.19
[8]; Mouse 1
  average absorbance, ELISA native vEGF: 1.50
[8]; Mouse 2
  average absorbance, ELISA native vEGF: 1.00
[8]; Mouse 3
  average absorbance, ELISA native vEGF: 0.86
[8]; Mouse 4
  average absorbance, ELISA native vEGF: 0.98
[8]; Mouse 5
  average absorbance, ELISA native vEGF: 1.63

## KQLIRFLKRLDRNLWGLAG (also: KLH conjugate via glutaraldehyde; listed as Homo sapiens) [Example 6, peptide corresponding to human IL4 coupled with KLH]
[9]; Average of 5 mice
  average absorbance, ELISA native IL4: 1.07
[9]; Mouse 1
  average absorbance, ELISA native IL4: 1.06
[9]; Mouse 2
  average absorbance, ELISA native IL4: 1.25
[9]; Mouse 3
  average absorbance, ELISA native IL4: 0.95
[9]; Mouse 4
  average absorbance, ELISA native IL4: 0.87
[9]; Mouse 5
  average absorbance, ELISA native IL4: 1.24

## KYFGKLESKLSVIRNLNDQVLFID (also: KLH conjugate via glutaraldehyde; listed as Homo sapiens) [Example 8, peptide originating from human IL18, K added, coupled with KLH]
[10]; Average of 5 mice
  average absorbance, ELISA native IL18: 1.35
[10]; Mouse 1
  average absorbance, ELISA native IL18: 1.85
[10]; Mouse 2
  average absorbance, ELISA native IL18: 1.13
[10]; Mouse 3
  average absorbance, ELISA native IL18: 0.99
[10]; Mouse 4
  average absorbance, ELISA native IL18: 1.24
[10]; Mouse 5
  average absorbance, ELISA native IL18: 1.54

## KYQAEGQLQWLNRRANALLANGVELRDNQL (also: KLH conjugate via diazobenzidine; listed as Homo sapiens) [Example 3, synthetic peptide originating from human TNFα, K and Y added, coupled to KLH]
[11]; Average of 5 mice
  average absorbance, ELISA native TNFα: 1.31
[11]; Mouse 1
  average absorbance, ELISA native TNFα: 1.64
[11]; Mouse 2
  average absorbance, ELISA native TNFα: 1.14
[11]; Mouse 3
  average absorbance, ELISA native TNFα: 1.96
[11]; Mouse 4
  average absorbance, ELISA native TNFα: 1.02
[11]; Mouse 5
  average absorbance, ELISA native TNFα: 0.78
[12]; Average of 5 mice, serum diluted 1/200th
  percentage inhibition of the lysis (neutralization of the TNFα): 61%
[12]; Mouse 1, serum diluted 1/200th
  percentage inhibition of the lysis (neutralization of the TNFα): 88%
[12]; Mouse 2, serum diluted 1/200th
  percentage inhibition of the lysis (neutralization of the TNFα): 12%
[12]; Mouse 3, serum diluted 1/200th
  percentage inhibition of the lysis (neutralization of the TNFα): 93%
[12]; Mouse 4, serum diluted 1/200th
  percentage inhibition of the lysis (neutralization of the TNFα): 36%
[12]; Mouse 5, serum diluted 1/200th
  percentage inhibition of the lysis (neutralization of the TNFα): 79%
[12]; serum of immunized mice vs controls
  neutralization of the TNFα, result in words: responses are observed for the immunized mice
